Results reported in patent US11261232B2, “TNFRSF14 / HVEM proteins and methods of use thereof” (MEMORIAL SLOAN KETTERING CANCER CENTER, priority 2015, dated 2022).

Key:
[1] = tested on: human and mouse lymphoma cell lines; assay: Cell proliferation in panel of BTLAhi and BTLAlo lymphoma cell lines; assay type: cell-based
Protocol: (§1) FIG. 7A-H. The solHVEM (either Leu39-Va1202 or Pro37-Va1202) protein restores tumor suppressive effects of HVEM.
FIG. 17. sTNFRSF14 inhibits the growth of lymphoma cell lines in vitro. Three lymphoma cell lines (Myc-Bc12, LY-10, Granta) were plated at 1×10^5 cells/ml and were treated with sTNFRSF14 (5 ug/ml) or vehicle each day for 72 hours. After 72 hours cells were counted using a hemocytometer. Each bar represents the average of three independent experiments.
(§2) Building on these findings, experiments were performed to test whether solHVEM would have any single agent activity against lymphomas. First, the expression of the BTLA receptor was characterized across a panel of human and mouse lymphoma (mostly DLBCL) cell lines. […] Next, experiments were performed to test if solHVEM had any effect on established BTLA^hi lymphomas in vivo. Briefly, aggressive MYC/BCL2 double positive murine lymphoma cells that express BTLA (BTLA^hi) were transplanted into the flanks of J:Nu nude mice and mice were treated with 20 μg of solHVEM or vehicle (PBS) every three days for a total four times once the engrafted tumors reached a volume of ˜50 mm3. […] Similar results were obtained both in vitro and in vivo with a different soluble HVEM molecule consisting of the extracellular region from amino acids Pro37 to Va1202 (SEQ ID NO. 6).
Lymphoma cell lines DoHH2, Ly-10, Granta, Su-DHL-6 were maintained in RPMI 1640 with 10% fetal bovine serum, 1% L-Glutamine and 1% penicillin/streptomycin. Mouse lymphoma cell line myc-bcl2 was maintained in IMDM-DMEM (50:50) with 10% fetal bovine serum, 1% L-Glutamine, and 1% penicillin/streptomycin. Cell lines were seeded at 5×10^5/mL and were treated with 5 m/m1 of sHVEM. After 24 hours cell number was counted using hemocytometer for a total of 72 hours after treatment.

DOHH2 cells = assay: BTK, SYK and ERK activation in anti-IgG-stimulated DOHH2 cells; assay type: cell-based, human
Protocol: as §1
FIG. 14A-E. Effect of solHVEM (either Leu39-Va1202 or Pro37-Va1202) on murine and human FL B cells. FIG. 14A and FIG. 14B, Quantification of pSYK levels in DOHH2 lymphoma cells that were stimulated with anti-IgG in the presence or absence of Pro37-Va1202 solHVEM (5 μg/ml) (* indicated p<0.01); representative FACS measurement in (FIG. 14B) FIG. 14C, FACS analysis of BTLA expression in a panel of lymphoma lines including murine myc/bc12 lymphomas and human lines (DOHH2, Su-DHL6, Granta, Ly10); FIG. 14D, representative pictures of tumors from mice; FIG. 14E, tumor weight of mouse tumors (n=3, p<0.01).
FIG. 15A-B. sTNFRSF14 opposes B cell receptor signaling in lymphoma B cells by decreasing P-BTK. A B-cell lymphoma cell line (DOHH2) was pre-treated for one hour with the soluble ectodomain of TNFRSF14 (sTNFRSF14) Pro 37-Val 202 (5 ug/ml) or the BTK inhibitor Ibrutinib (10nmM) and then stimulated for 5 mins at 37° C. with anti-IgG molecule. The cells were subsequently fixed and permeabilized and probed for pBTK expression using phospo-flow antibodies and analyzed on BD Fortessa. FIG. 15A, Representative FACS plots. FIG. 15B, Quantification of mean fluorescence intensity of phospho-BTK after treatment with vehicle or drug.
FIG. 16A-B. sTNFRSF14 opposes B-cell receptor signaling in lymphoma B cells by decreasing P-SYK. A B-cell lymphoma cell line (DOHH2) was pre-treated for one hour with the soluble ectodomain of TNFRSF14 (sTNFRSF14) Pro37-Val 202 (5 ug/ml) or the BTK inhibitor Ibrutinib (10nmM) and then stimulated for 5 mins at 37° C. with anti-IgG molecule. The cells were subsequently fixed and permeabilized and probed for pSYK expression using phospo-flow antibodies and analyzed on a BD Fortessa. FIG. 16A, Representative FACS plots. FIG. 16B, Quantification of mean fluorescence intentisty of phospho-SYK after treatment with vehicle or drug.
as §2
For phospho-BTK, phospho-Syk staining, cells were pretreated for 60 min with either 5 μg/mL of sHVEM (R&D Systems) or 10 ng/mL Ibrutinib (ChemieTek PCI-32765) at 37° C. Cells were fixed by adding equal volume of formaldehyde directly to the cells. Cells were incubated for 10 minutes at room temperature, washed 2× in PBS and the residual cells were permeabilized in 1 mL of ice cold methanol (100%) for 30 min on ice. Cells were then washed twice and stained with the phospho-BTK (Bd Biosciences clone N35-88) and phospho-Syk (Bd Biosciences clone 17 A/P-Zap70) and analyzed on BD LSRFortessa. […]

[2] = DOHH2 (BTLAhi, HVEM deleted), 10 μg/ml

Molecule: solHVEM: Leu39-Val202 soluble HVEM ectodomain polypeptide of SEQ ID NO. 8
- growth of BTLAhi lymphoma cells ([1]; BTLAhi lines (DOHH2, SU-DHL6, murine MYC/BCL2), 5 μg/ml): significant growth inhibition
- growth of BTLAlo lymphoma cells ([1]; BTLAlo lines (Granta, Su-DHL10), 5 μg/ml): not affected
- ERK activation (DOHH2 cells; [2]): readily blocked
- SYK activation (DOHH2 cells; [2]): readily blocked

B1: sTNFRSF14: Pro37-Val202 soluble HVEM ectodomain polypeptide of SEQ ID NO. 6 (protein, listed as Homo sapiens)
chain: PALPSCKEDEYPVGSECCPKCSPGYRVKEACGELTGTVCEPCPPGTYIAHLNGLSKCLQCQMCDPAMGLRASRNCSRTENAVCGCSPGHFCIVQDGDHCAACRAYATSSPGQRVQKGGTESQDTLCQNCPPGTFSPNGTLEECQHQTKCSWLVTKAGAGTSSSHWV
- cell growth in cell lines that did not express BTLA ([1]; 5 ug, three days): did not inhibit cell growth
- cell growth in cell lines with highest BTLA levels ([1]; Myc-Bc12 cell line, 5 ug, three days): largest effect on growth
- BTK activation (DOHH2 cells; [2]): readily blocked
- activation (phosphorylation) of BTK (DOHH2 cells; DOHH2, one hour pre-incubation, 5 ug/ml, anti-IgG): effectively blocked
- levels of phosphorylated SYK (DOHH2 cells; DOHH2, one hour pre-treatment, 5 ug/ml, anti-IgG): inhibited
